This note sets out measurements from the RNAGym collection of RNA variant scans (doi:10.7554/elife.80360).

To fix the notation:
B1: Hairpin Ribozyme (parent)
chain: GUCCUCUUUCACGUGCGCGUGAAAGAGAGAAGUGAACCAGAGAAACACACGUUGUGGUAUAUUACCUGGUA

The variants in the data set derive from B1. As to the kind of experiment: self-cleavage, relative activity (ratio to wild type); higher = more cleavage; co-transcriptional.
With U14G U55G, the self-cleavage amounted to 0.273.

As for G15A C16U, the self-cleavage came out at 1.01.

Regarding C16A C46U, the self-cleavage is 0.0901.

Turning to G15C C46U, the self-cleavage worked out at 0.151.

Consider G15C A31C, for which the self-cleavage is 0.206.

On to U14C C65U, for which the self-cleavage was 0.295.

Regarding U14C A39U, the self-cleavage stood at 0.387.

With G15C G29C, the self-cleavage was determined as 0.116.

For G15C G29U, the self-cleavage worked out at 0.174.

As for G15C C38G, the self-cleavage was 0.127.

Turning to G15C C38A, the self-cleavage stood at 0.22.

C16A G25A: the self-cleavage stood at 0.561.

As for U14G A59C, the self-cleavage came out at 0.0613.

Turning to U14G A59U, the self-cleavage was determined as 0.183.

U14C U67C: the self-cleavage was 0.227.

Consider G15C A36G, for which the self-cleavage is 1.06.

As for G15C A36C, the self-cleavage was 0.678.

Turning to U14G A24G, the self-cleavage stood at 0.747.

G15C G68C: the self-cleavage stood at 0.165.

U14G A45G: the self-cleavage was found to be 0.0744.

G15U C18G: the self-cleavage came out at 1.02.

As for G15C C18G, the self-cleavage is 0.863.

In the case of G15C C18U, the self-cleavage came out at 0.922.

As for C16A A44G, the self-cleavage came to 0.153.

As for U14C G32U, the self-cleavage was found to be 0.138.

In the case of U14C G32C, the self-cleavage is 0.244.

As to U14C A30C, the self-cleavage stood at 0.263.

For the variant G15U A49U, the self-cleavage was 0.0651.

With G15U A49C, the self-cleavage was found to be 0.0683.

Regarding G15C U20A, the self-cleavage was determined as 0.963.

Turning to C16A C38A, the self-cleavage turned out to be 0.203.

With C16A A24U, the self-cleavage came out at 0.632.

With U14G A22U, the self-cleavage worked out at 0.683.

As for U14G A22G, the self-cleavage is 0.798.

U14C U70G: the self-cleavage is 0.679.

Turning to G15U U58G, the self-cleavage was found to be 0.711.

G15C A39C: the self-cleavage worked out at 0.463.

G15C A39U: the self-cleavage worked out at 0.402.

Take G15A U63A: the self-cleavage was 0.116.

G15A U63C: the self-cleavage is 0.0715.

Take G15A U63G: the self-cleavage was 0.0686.

Turning to G15U C46U, the self-cleavage turned out to be 0.187.

As to G15U C37U, the self-cleavage stood at 0.784.

As for G15U C37G, the self-cleavage was 0.339.

With G15U C37A, the self-cleavage stood at 0.386.

For G15U G27A, the self-cleavage is 0.432.

As for G15U G27C, the self-cleavage stood at 0.278.

On to C16A A22C, for which the self-cleavage was determined as 0.713.

For U14G G57U, the self-cleavage was 0.234.

Take U14G A28C: the self-cleavage worked out at 0.589.

For the variant U14G A28G, the self-cleavage amounted to 1.15.

For C16A G19A, the self-cleavage was determined as 0.991.

For the variant U14G A49U, the self-cleavage is 0.0246.

With U14C C38G, the self-cleavage worked out at 0.246.

For the variant G15U U55A, the self-cleavage is 0.304.

Consider U14G C37G, for which the self-cleavage turned out to be 0.276.

Consider U14G C37A, for which the self-cleavage turned out to be 0.276.

Turning to G15C A24U, the self-cleavage turned out to be 0.884.

Consider G15U G69C, for which the self-cleavage came to 0.434.

Turning to G15U G69A, the self-cleavage was determined as 0.448.

In the case of G15U A47G, the self-cleavage was found to be 0.116.

For the variant G15A U60C, the self-cleavage amounted to 0.853.

Take G15C A43U: the self-cleavage was determined as 0.126.

As to G15C C37G, the self-cleavage stood at 0.298.

Regarding G15A C38A, the self-cleavage stood at 0.148.

Take G15A C38G: the self-cleavage is 0.297.

In the case of U14G G32A, the self-cleavage stood at 0.191.

As to U14G G32U, the self-cleavage amounted to 0.107.

For G15U A59G, the self-cleavage is 0.161.

Consider G15U U52C, for which the self-cleavage was 0.911.

Turning to G15U A26C, the self-cleavage was determined as 0.96.

Take G15U A26U: the self-cleavage was 0.831.

In the case of U14G, the self-cleavage was found to be 0.813.

For U14C, the self-cleavage was 0.982.

Consider G15U G32C, for which the self-cleavage was found to be 0.122.

For G15A A26C, the self-cleavage came to 0.93.

Turning to U14G U33C, the self-cleavage was determined as 0.0267.

As for U14G U33A, the self-cleavage was found to be 0.116.

Take U14G U33G: the self-cleavage stood at 0.127.

On to U14C U52C, for which the self-cleavage turned out to be 0.938.

Consider G15C G56U, for which the self-cleavage was found to be 0.113.

In the case of G15C G56C, the self-cleavage is 0.113.

In the case of C16A G29C, the self-cleavage was 0.0987.

Consider C16A G29U, for which the self-cleavage is 0.128.

For C16A G29A, the self-cleavage came out at 0.144.

Take G15U U53C: the self-cleavage amounted to 1.04.

For G15U U53A, the self-cleavage is 1.16.

As to G15A A23C, the self-cleavage worked out at 0.877.

With G15U G42A, the self-cleavage came to 0.207.

In the case of G15A G17C, the self-cleavage was 0.83.

With U14G A30U, the self-cleavage came to 0.175.

Turning to U14C C37G, the self-cleavage worked out at 0.319.

For the variant U14C C37A, the self-cleavage came to 0.245.

In the case of G15C A28G, the self-cleavage worked out at 1.29.

Turning to G15C A28C, the self-cleavage is 0.407.

Consider U14G G15C, for which the self-cleavage came to 0.864.

As for U14C G54A, the self-cleavage worked out at 0.509.

With U14C G54U, the self-cleavage was determined as 0.541.

Turning to C16A A41C, the self-cleavage stood at 1.18.

As to G15C U33A, the self-cleavage came to 0.0629.

On to G15A A28G, for which the self-cleavage came to 0.978.

In the case of G15A A28C, the self-cleavage stood at 0.586.

For G15C G19A, the self-cleavage came to 0.913.

Turning to C16A A45C, the self-cleavage came to 0.123.

For C16A A45G, the self-cleavage was 0.115.

Turning to C16A C48G, the self-cleavage stood at 0.155.

In the case of G15U A71G, the self-cleavage is 1.12.

As to G15U A71U, the self-cleavage came out at 0.923.

On to G15U G34U, for which the self-cleavage amounted to 1.46.

Consider U14G G29U, for which the self-cleavage stood at 0.151.

As for U14G G29A, the self-cleavage stood at 0.0483.

C16A A31C: the self-cleavage is 0.0433.

In the case of G15C U60A, the self-cleavage worked out at 0.709.

With G15A A49U, the self-cleavage was determined as 0.149.

Turning to G15A A49G, the self-cleavage was determined as 0.527.

For U14G U63A, the self-cleavage was determined as 0.217.

For C16A G32U, the self-cleavage came to 0.226.

Take C16A G32C: the self-cleavage was found to be 0.0596.

For the variant C16A G32A, the self-cleavage was determined as 0.121.

For the variant G15U A24C, the self-cleavage worked out at 1.08.

Take G15U A24G: the self-cleavage amounted to 1.12.

Take U14C A22G: the self-cleavage turned out to be 0.864.

Take G15U A64C: the self-cleavage came to 0.16.

As for G15U A64G, the self-cleavage is 0.657.

For G15A A35G, the self-cleavage came out at 0.934.

U14G C48A: the self-cleavage is 0.165.

On to U14C A23C, for which the self-cleavage was 0.693.

Regarding G15C A61G, the self-cleavage turned out to be 0.173.

With G15C A61U, the self-cleavage turned out to be 0.181.

Consider C16A A64C, for which the self-cleavage was 0.133.

For U14C A31G, the self-cleavage is 0.737.

For U14C A41U, the self-cleavage amounted to 1.34.

In the case of U14G G27U, the self-cleavage is 0.144.

On to G15U G17C, for which the self-cleavage was found to be 0.881.

For the variant G15C A47U, the self-cleavage was found to be 0.142.

Turning to G15C U62C, the self-cleavage came out at 0.0966.

In the case of G15U U20C, the self-cleavage turned out to be 1.

Consider U14C A28U, for which the self-cleavage was determined as 0.668.

Regarding C16A G21U, the self-cleavage turned out to be 0.72.

Take G15U C48A: the self-cleavage stood at 0.226.

With G15U C48U, the self-cleavage was 0.149.

On to G15U C48G, for which the self-cleavage is 0.213.

As for U14G G17A, the self-cleavage amounted to 0.854.

For G15U C65G, the self-cleavage was found to be 0.244.

As to G15A G51C, the self-cleavage came out at 0.79.

With G15A G51U, the self-cleavage was 0.82.

For U14G U52G, the self-cleavage came out at 0.507.

In the case of G15C C65U, the self-cleavage worked out at 0.352.

In the case of U14C G34C, the self-cleavage was found to be 1.5.

G15A A31G: the self-cleavage was 0.586.

Take G15A A31U: the self-cleavage worked out at 0.133.

Regarding U14C G56C, the self-cleavage is 0.163.

For the variant U14C G56U, the self-cleavage was 0.126.

U14C A71C: the self-cleavage came out at 1.59.

On to U14C A71G, for which the self-cleavage was determined as 1.24.

As to G15A G56U, the self-cleavage was determined as 0.134.

Turning to G15A A43G, the self-cleavage came to 0.155.

As for G15A A43U, the self-cleavage turned out to be 0.178.

As to C16A A59G, the self-cleavage was found to be 0.085.

For C16A A23G, the self-cleavage amounted to 0.783.

For the variant G15A A24G, the self-cleavage stood at 0.963.

For G15A A24C, the self-cleavage is 0.899.

With G15C U63A, the self-cleavage was found to be 0.188.

For the variant U14G A61G, the self-cleavage came out at 0.0735.

Take U14G A61U: the self-cleavage came out at 0.2.

Take U14G A61C: the self-cleavage was determined as 0.257.

As to U14C A64C, the self-cleavage stood at 0.257.
